The source of these data is US20240424127A1 (BRIGHT PEAK THERAPEUTICS, published 2024).

Like-named read-outs stand apart in the source and are kept apart here. Bridges are numbered along the chain shown (N, C = ends). [ ]: non-standard residue; d: D form. glutaryl‑PEG9‑azide = glutaryl-PEG9-azide group on the N-terminal amine; L6P = lysine side chain carrying PEG6-NH2 (diglycolyl-PEG-amine); hSer = N[C@@H](CCO)C(=O)O; Nle = CCCC[C@H](N)C(=O)O

Assay [1] concerns the target T1, IL-7 receptor (IL-7Rα/γc heterodimer) on primary human T cells (human, UniProt P16871 21-459; P31785 23-369).
T1 sequence (looked up) 1: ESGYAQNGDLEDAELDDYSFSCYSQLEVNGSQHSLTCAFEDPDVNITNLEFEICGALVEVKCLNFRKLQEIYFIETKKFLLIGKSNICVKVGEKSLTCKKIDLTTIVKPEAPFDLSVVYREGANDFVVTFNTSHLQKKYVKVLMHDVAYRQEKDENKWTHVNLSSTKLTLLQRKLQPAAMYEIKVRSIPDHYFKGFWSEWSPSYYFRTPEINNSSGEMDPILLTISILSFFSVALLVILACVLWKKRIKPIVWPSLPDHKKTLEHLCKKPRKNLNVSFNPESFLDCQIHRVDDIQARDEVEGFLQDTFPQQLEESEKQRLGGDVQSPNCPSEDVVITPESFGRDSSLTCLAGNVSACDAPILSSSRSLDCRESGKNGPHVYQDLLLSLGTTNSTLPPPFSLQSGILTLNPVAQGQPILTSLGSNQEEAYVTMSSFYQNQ
T1 sequence (looked up) 2: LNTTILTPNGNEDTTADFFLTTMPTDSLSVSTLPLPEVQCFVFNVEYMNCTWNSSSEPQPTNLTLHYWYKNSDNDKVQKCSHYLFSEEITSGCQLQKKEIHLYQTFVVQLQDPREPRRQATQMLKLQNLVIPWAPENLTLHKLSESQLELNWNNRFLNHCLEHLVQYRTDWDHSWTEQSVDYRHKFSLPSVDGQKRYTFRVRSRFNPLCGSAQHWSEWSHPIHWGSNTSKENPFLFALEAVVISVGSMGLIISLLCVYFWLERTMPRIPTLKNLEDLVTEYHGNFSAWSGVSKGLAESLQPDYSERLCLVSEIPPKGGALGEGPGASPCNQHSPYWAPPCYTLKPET
Nature of the assay: cell-based or functional assay.

The target in assay [2] is T2, Recombinant Human IL-7R alpha/CD127 Fc Avi-tag Protein, CF (R&D Systems #AVI10317-050) (human, UniProt P16871 21-239).
T2 construct: Bought construct; It was loaded on streptavidin (SAX/SAX2) biosensors; not shown: Fc and Avi-tag of a bought protein
T2 sequence (looked up): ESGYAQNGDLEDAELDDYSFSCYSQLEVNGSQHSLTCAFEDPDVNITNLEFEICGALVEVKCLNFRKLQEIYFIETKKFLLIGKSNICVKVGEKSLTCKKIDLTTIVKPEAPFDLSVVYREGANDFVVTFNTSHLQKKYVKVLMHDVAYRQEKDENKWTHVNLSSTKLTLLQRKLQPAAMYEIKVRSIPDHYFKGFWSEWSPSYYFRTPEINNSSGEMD
Nature of the assay: BLI (Octet R8); CD127-Fc-Avi loaded on SAX2 sensor, IL-7 polypeptide as analyte.

Assay [3] concerns the target T2, Recombinant Human IL-7R alpha/CD127 Fc …. The assay is described as above. This is another data set of the same source.
Assay [4] shares this target. The assay is described as above. This is another data set of the same source.
The target is the same in assay [5]. Described as above. The source holds these as a separate data set.
The target is the same in assay [6]. Described as above. The source holds these as a separate data set.
Assay [7] shares this target. The description is as above. The source holds these as a separate data set.

B1: CMP-113, synthetic IL-7 C2A, C92A of SEQ ID NO: 10 with glutaryl-PEG9-azide at the N-terminus (ligand)
chain: {glutaryl‑PEG9‑azide}-DADIEGKDGKQYESVL[Nle]VSIDQLLDS[Nle]KEIGSNCL[hSer]NEFNFFKRHICDANKEG[Nle]FLFRAARKLRQFLK[Nle]NSTGDF[hSer]LHLLKVSEGTTILLNATGQVKGRKPAALGEAQPTKSL[hSer]ENKSLKEQKKLNDLCFLKRLLQEIKTCWNKIL[Nle]GTKEH
modifications: ends and bridges not checked
Consider B1, for which, in assay [1], the “EC50 pSTAT5, CD4 Memory” value came to 40 pM; the “EC50 pSTAT5, CD4 Naive” value is 40 pM; the “EC50 pSTAT5, CD4 Treg” value was 0.18 nM; the “EC50 pSTAT5, CD8 Memory” value came out at 60 pM. Moreover, the “EC50 pSTAT5, CD8 Naive” value in assay [1] turned out to be 50 pM.

B2: CMP-036, synthetic IL-7 of SEQ ID NO: 3 (no N-terminal conjugation handle) (ligand)
chain: DCDIEGKDGKQYESVL[Nle]VSIDQLLDS[Nle]KEIGSNCL[hSer]NEFNFFKRHICDANKEG[Nle]FLFRAARKLRQFLK[Nle]NSTGDF[hSer]LHLLKVSEGTTILLNCTGQVKGRKPAALGEAQPTKSL[hSer]ENKSLKEQKKLNDLCFLKRLLQEIKTCWNKIL[Nle]GTKEH
modifications: ends and bridges not checked
B2: in assay [1], the “EC50 pSTAT5, CD4 Memory” value came to 5 pM; the “EC50 pSTAT5, CD4 Naive” value was 5 pM; the “EC50 pSTAT5, CD4 Treg” value was 15 pM; the “EC50 pSTAT5, CD8 Memory” value came to 6 pM. Further, the “EC50 pSTAT5, CD8 Naive” value in assay [1] was determined as 6 pM.

B3: CMP-114, CMP-108 conjugated to 30 kDa DBCO PEG at the N-terminus (ligand)
chain: DCDIEGKDGKQYESVL[Nle]VSIDQLLDS[Nle]KEIGSNCL[hSer]NEFNFFKRHICDANKEG[Nle]FLFRAARKLRQFLK[Nle]NSTGDF[hSer]LHLLKVSEGTTILLNCTGQVKGRKPAALGEAQPTKSL[hSer]ENKSLKEQKKLNDLCFLKRLLQEIKTCWNKIL[Nle]GTKEH-NH2
modifications: disulfide 34-129, 47-141, 2-92; not fully specified (N-terminus); also: N-terminal azide conjugated to 30 kDa DBCO-PEG
For B3, in assay [1], the “EC50 pSTAT5, CD4 Memory” value was determined as 4 pM; the “EC50 pSTAT5, CD4 Naive” value stood at 2 pM; the “EC50 pSTAT5, CD4 Treg” value was determined as 10 pM; the “EC50 pSTAT5, CD8 Memory” value is 4 pM. The “EC50 pSTAT5, CD8 Naive” value in assay [1] is 5 pM.

B4: CMP-035, recombinant human native IL-7 with His-tag (ligand)
chain: DCDIEGKDGKQYESVLMVSIDQLLDSMKEIGSNCLNNEFNFFKRHICDANKEGMFLFRAARKLRQFLKMNSTGDFDLHLLKVSEGTTILLNCTGQVKGRKPAALGEAQPTKSLEENKSLKEQKKLNDLCFLKRLLQEIKTCWNKILMGTKEHVDHHHHHH
notes: also called WT IL-7 His; recombinant IL-7 (WT)
As to B4, in assay [1], the “EC50 pSTAT5, CD4 Memory” value stood at 1 pM; the “EC50 pSTAT5, CD4 Naive” value stood at 1 pM; the “EC50 pSTAT5, CD4 Treg” value was determined as 32 pM; the “EC50 pSTAT5, CD8 Memory” value came out at 6 pM. In assay [1], the “EC50 pSTAT5, CD8 Naive” value amounted to 2 pM. In assay [2], the Kd (commonly a measure of binding affinity in units of concentration) was found to be 1.28 nM; the dissociation rate constant (koff) (in general, the first-order rate constant of dissociation) was determined as 0.00698 s⁻¹; the kon – broadly, a measure of how fast the partners come together – amounted to 5.47e+06 M⁻¹ s⁻¹.

B5: CMP-117, recombinant IL-7 Q11F with His-tag (ligand)
chain: DCDIEGKDGKFYESVLMVSIDQLLDSMKEIGSNCLNNEFNFFKRHICDANKEGMFLFRAARKLRQFLKMNSTGDFDLHLLKVSEGTTILLNCTGQVKGRKPAALGEAQPTKSLEENKSLKEQKKLNDLCFLKRLLQEIKTCWNKILMGTKEHVDHHHHHH
In the case of B5, in assay [1], the “EC50 pSTAT5, CD4 Memory” value stood at 1 pM; the “EC50 pSTAT5, CD4 Naive” value came to 1 pM; the “EC50 pSTAT5, CD4 Treg” value was 10 pM; the “EC50 pSTAT5, CD8 Memory” value was determined as 2 pM. Moreover, the “EC50 pSTAT5, CD8 Naive” value in assay [1] amounted to 1 pM.

B6: CMP-111, synthetic IL-7 K81(L6P), G85N of SEQ ID NO: 8 with glutaryl-PEG9-azide at the N-terminus (ligand)
chain: {glutaryl‑PEG9‑azide}-DCDIEGKDGKQYESVL[Nle]VSIDQLLDS[Nle]KEIGSNCL[hSer]NEFNFFKRHICDANKEG[Nle]FLFRAARKLRQFLK[Nle]NSTGDF[hSer]LHLLK(L6P)VSENTTILLNCTGQVKGRKPAALGEAQPTKSL[hSer]ENKSLKEQKKLNDLCFLKRLLQEIKTCWNKIL[Nle]GTKEH-NH2
modifications: disulfide 34-129, 47-141, 2-92
As for B6, in assay [1], the “EC50 pSTAT5, CD4 Memory” value is 11.2 nM; the “EC50 pSTAT5, CD4 Naive” value was 11.6 nM; the “EC50 pSTAT5, CD4 Treg” value was 82.3 nM; the “EC50 pSTAT5, CD8 Memory” value amounted to 16.2 nM. The “EC50 pSTAT5, CD8 Naive” value in assay [1] was 12.3 nM. For the same molecule, in assay [3], the dissociation rate constant (koff) was 0.0353 s⁻¹ and the association rate constant (kon) was 1.41e+06 M⁻¹ s⁻¹. For the same molecule, in assay [4], the Kd worked out at 16.5 nM, the koff came to 0.0318 s⁻¹ and the association rate constant (kon) came to 1.92e+06 M⁻¹ s⁻¹.

B7: CMP-107, synthetic IL-7 V15W of SEQ ID NO: 5 with glutaryl-PEG9-azide at the N-terminus (ligand)
chain: {glutaryl‑PEG9‑azide}-DCDIEGKDGKQYESWL[Nle]VSIDQLLDS[Nle]KEIGSNCL[hSer]NEFNFFKRHICDANKEG[Nle]FLFRAARKLRQFLK[Nle]NSTGDF[hSer]LHLLKVSEGTTILLNCTGQVKGRKPAALGEAQPTKSL[hSer]ENKSLKEQKKLNDLCFLKRLLQEIKTCWNKIL[Nle]GTKEH-NH2
modifications: disulfide 34-129, 47-141, 2-92
notes: also called synthetic IL-7 with V15W
For the molecule B7, in assay [1], the “EC50 pSTAT5, CD4 Memory” value is 0.4 pM; the “EC50 pSTAT5, CD4 Naive” value was found to be 1 pM; the “EC50 pSTAT5, CD4 Treg” value is 1.2 nM; the “EC50 pSTAT5, CD8 Memory” value turned out to be 34 pM. Moreover, in assay [1], the “EC50 pSTAT5, CD8 Naive” value turned out to be 6 pM. Also, in assay [5], the Kd was 22.5 nM, the koff was determined as 0.0259 s⁻¹ and the kon stood at 1.15e+06 M⁻¹ s⁻¹.

B8: CMP-200, IL-7 syntein missing C2-C92 disulphide bond, N-terminus with glutaric acid and azido-PEG (ligand)
chain: {glutaryl‑PEG9‑azide}-DSDIEGKDGKQYESVL[Nle]VSIDQLLDS[Nle]KEIGSNCL[hSer]NEFNFFKRHICDANKEG[Nle]FLFRAARKLRQFLK[Nle]NSTGDF[hSer]LHLLKVSEGTTILLNSTGQVKGRKPAALGEAQPTKSL[hSer]ENKSLKEQKKLNDLCFLKRLLQEIKTCWNKIL[Nle]GTKEH-NH2
modifications: disulfide 34-129, 47-141
notes: also called CMP-200-001
In the case of B8, in assay [1], the “EC50 pSTAT5, CD4 Memory” value was determined as 30 pM; the “EC50 pSTAT5, CD4 Naive” value came to 20 pM; the “EC50 pSTAT5, CD4 Treg” value amounted to 0.14 nM; the “EC50 pSTAT5, CD8 Memory” value is 40 pM. In assay [1], the “EC50 pSTAT5, CD8 Naive” value was 30 pM. Besides, in assay [6], the Kd came out at 7.18 nM, the koff amounted to 0.00879 s⁻¹ and the on-rate constant (kon) was 1.22e+06 M⁻¹ s⁻¹.

B9: CMP-201, synthetic IL-7 variant of Example 2V (ligand)
chain: {glutaryl‑PEG9‑azide}-DSDIEGKDGKQYESVL[Nle]VSIDQLLDS[Nle]KEIGSNCL[hSer]NEFNFFKRHICDANKEG[Nle]FLFRAARKLRQFLK[Nle]NSTGDF[hSer]LHLLKVSENTTILLNSTGQVKGRKPAALGEAQPTKSL[hSer]ENKSLKEQKKLNDLCFLKRLLQEIKTCWNKIL[Nle]GTKEH-NH2
modifications: disulfide 34-129, 47-141
With B9, in assay [1], the “EC50 pSTAT5, CD4 Memory” value was found to be 0.7 nM; the “EC50 pSTAT5, CD4 Naive” value worked out at 0.8 nM; the “EC50 pSTAT5, CD4 Treg” value amounted to 4.45 nM; the “EC50 pSTAT5, CD8 Memory” value amounted to 1.7 nM. Also, the “EC50 pSTAT5, CD8 Naive” value in assay [1] amounted to 1.2 nM. Also, in assay [7], the Kd was determined as 19.2 nM, the dissociation rate constant (koff) was determined as 0.00996 s⁻¹ and the on-rate (kon) came to 518000 M⁻¹ s⁻¹.
